The values that follow come from patent US20260183373A1.

Assay [1] deals with Aβ(1-40) (UniProt P05067).
Assay [2] has as its target Aβ(1-42) (UniProt P05067).
Assay [3] deals with Aβ(1-40) (UniProt P05067). Kind of assay: cell-based or functional assay.
The target of assay [4] is Aβ(1-42) (UniProt P05067). The experiment in a line: cell-based or functional assay.
Assay [5] concerns the target Aβ(1-40) (UniProt P05067). This is another data set of the same source.
Assay [6] addresses Aβ(1-42) (UniProt P05067). This is another data set of the same source.

For orientation: EC50 (read off the curve) means the concentration at which the effect is half-maximal. Low values mean greater potency, high ones weaker potency.

neprolysin (NEP), sequence (P08473 52-750 limits assumed): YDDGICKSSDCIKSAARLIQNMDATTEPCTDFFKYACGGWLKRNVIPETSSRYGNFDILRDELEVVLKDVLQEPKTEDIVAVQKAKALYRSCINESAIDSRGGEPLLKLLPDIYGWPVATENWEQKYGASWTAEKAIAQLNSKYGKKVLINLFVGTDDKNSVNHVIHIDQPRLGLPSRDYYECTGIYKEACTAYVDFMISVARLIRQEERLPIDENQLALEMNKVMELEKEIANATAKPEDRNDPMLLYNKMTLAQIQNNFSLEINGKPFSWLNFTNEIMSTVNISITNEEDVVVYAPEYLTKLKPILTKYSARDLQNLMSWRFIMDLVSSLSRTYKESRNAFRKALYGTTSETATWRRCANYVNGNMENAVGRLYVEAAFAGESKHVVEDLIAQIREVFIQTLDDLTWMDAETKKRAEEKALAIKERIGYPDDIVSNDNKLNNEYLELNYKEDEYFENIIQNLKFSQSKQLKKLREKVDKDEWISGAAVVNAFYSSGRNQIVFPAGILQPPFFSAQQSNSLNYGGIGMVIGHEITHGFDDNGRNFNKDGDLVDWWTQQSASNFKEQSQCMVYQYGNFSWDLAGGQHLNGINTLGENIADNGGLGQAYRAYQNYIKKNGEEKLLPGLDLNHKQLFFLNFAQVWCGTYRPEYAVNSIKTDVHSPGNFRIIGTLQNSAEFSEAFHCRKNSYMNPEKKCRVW
MMP2 (enzyme), sequence (P08253 110-660): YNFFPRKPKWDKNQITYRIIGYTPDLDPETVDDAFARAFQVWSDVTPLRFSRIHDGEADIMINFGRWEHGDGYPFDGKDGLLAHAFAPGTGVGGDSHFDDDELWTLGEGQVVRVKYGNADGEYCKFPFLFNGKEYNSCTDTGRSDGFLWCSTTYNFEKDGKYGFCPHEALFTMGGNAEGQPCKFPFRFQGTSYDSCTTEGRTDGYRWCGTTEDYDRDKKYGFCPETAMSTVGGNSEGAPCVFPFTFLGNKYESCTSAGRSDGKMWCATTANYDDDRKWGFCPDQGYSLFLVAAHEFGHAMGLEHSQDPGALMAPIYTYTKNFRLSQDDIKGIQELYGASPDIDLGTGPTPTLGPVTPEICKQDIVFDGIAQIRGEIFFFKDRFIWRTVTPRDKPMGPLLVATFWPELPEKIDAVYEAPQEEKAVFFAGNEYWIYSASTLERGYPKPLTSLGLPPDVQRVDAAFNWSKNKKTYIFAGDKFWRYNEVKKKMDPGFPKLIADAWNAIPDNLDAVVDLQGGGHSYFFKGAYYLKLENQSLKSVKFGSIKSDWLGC

As for MMP2 (enzyme), the concentration giving a half-maximal response (EC50 (read off the curve)) with Aβ(1-40) [1] came out at 90 nM.

Turning to NEP2 (enzyme), the EC50 (read off the curve) was found to be 50 nM with Aβ(1-40) [1] and 60 nM with Aβ(1-42) [2].

As to “insulin-degrading enzyme (IDE) (from UniProt P14735 42-1019)”, the EC50 of Aβ cleavage (ELISA-based assay of intact Aβ) with Aβ(1-40) [3] and in the assay with Aβ(1-42) [4] was 0.1 nM throughout.

For “neprolysin (NEP) (from UniProt P08473 52-750) (enzyme)”, the EC50 of Aβ(1-40) cleavage (intact Aβ by ELISA) in the assay with Aβ(1-40) [5] was 19 nM. The same substance had an EC50 of Aβ(1-42) cleavage (intact Aβ by ELISA) with Aβ(1-42) [6] of 44 nM. Also, the EC50 of Aβ cleavage (ELISA-based assay of intact Aβ) with Aβ(1-40) [3] and with Aβ(1-42) [4] was 12 nM throughout.
